Experimental data published in the DeepSol protein solubility set.

assay: soluble on expression in E. coli; label from the status in PepcDB or PDB records

Sequence	soluble on expression in E. coli
MERAEILGVGTELLYGETLDTNTAEIARSLKPYALKVERTLRVADEVAPLAREVEEAFARARLVVLSGGLGPTPDDVTREAVALALGEPLELDEAVLGEIEAFFRARGRAMPEANRKQAMRIPSATWLKNPRGTAPGWWVRKGGKDLVLLPGPPPEWRPMWQEVLPRLGLPRRPYAERVLKTWGIGESEIVERLGPLFVRGEEVEVGTYPKVHGVEVVVRGREDRVAELAERIKKKLLKEVWGEGEMTLAEAVKRRMEREGATLSTMESLTGGLLGAEITRVPGASRFYLGGVVSYSVGAKARFGVPQDLLSRTVSAETARAMAEAARSLFGSTYALATTGVAGPDPLEGEPPGTVYVALAGPTGAEVRRYRFPGDRETVRLRSVYAALALLVT	soluble
MERKLFAFDIDGTLLNSEKKALDSTREALAKLREQGHLVTLATGRSRYMAQEVIWDLDFTNYVLCNGAAAFVDHEQYYQNLLHAEALERLAQDSDQRGLGFACVGLDDIKKSNQHRAEKMEIAMNSFHFHSPAYDEHFYRQNDIYQALAFYDAEDQCTFEEEYPEFRFIRWHQHSVDVVPKDGSKSATLTYLAKRVGIDAKNIIAFGDGENDREMLSHAGIGVAMGNASPSIQKVATMVTDTNDNDGIWKALKEMKAI	not soluble
MERPISEAYFQEAKRHIPGGVSSPVRAFKAVGGTPPFLVRGEGAYVWDADGNRYLDYVMSWGPLILGHAHPKVLARVRETLERGLTFGAPSPLEVALAKKVKRAYPFVDLVRFVNSGTEATMSALRLARGYTGRPYIVKFRGNYHGHADGLLVEAGSGALTLGVPSSAGVPEEYAKLTLVLEYNDPEGLREVLKRRGEEIAAIIFEPVVGNAGVLVPTEDFLKALHEAKAYGVLLIADEVMTGFRLAFGGATELLGLKPDLVTLGKILGGGLPAAAYAGRREIMEKVAPLGPVYQAGTLSGNPLAMAAGLATLELLEENPGYYAYLEDLGARLEAGLKEVLKEKGLPHTVNRVGSMITVFFTEGPVVTFQDARRTDTELFKRFFHGLLDRGIYWPPSNFEAAFLSVAHREEDVEKTLEALRKAL	soluble
MERPRFSNYYAVRVTGGQEINVALMIEERIKTNNIKEVYSIIVPPNVKGYVILEATGPHVVKLVSQGIRHVRGFAQGLVQKDDIIKFISKTTIAPAYKVGDMVEVTSGPFRGMQAQVVRIDSAKNEVVLNILESSFPLQVTVPIDQVKPVKK	soluble
MERQQQQQQQLRNLRDFLLVYNRMTELCFQRCVPSLHHRALDAEEEACLHSCAGKLIHSNHRLMAAYVQLMPALVQRRIADYEAASAVPSVAAEQPGVSPSGS	soluble
MERREEQPGAAGAGAAPALDFTVENVEKALHQLYYDPNIENKNLAQKWLMQAQVSPQAWHFSWQLLQPDKVPEIQYFGASALHIKISRYWSDIPTDQYESLKAQLFTQITRFASGSKIVLTRLCVALASLALSMMPDAWPCAVADMVRLFQAEDSPVDGQGRCLALLELLTVLPEEFQTSRLPQYRKGLVRTSLAVECGAVFPLLEQLLQQPSSPSCVRQKVLKCFSSWVQLEVPLQDCEALIQAAFAALQDSELFDSSVEAIVNAISQPDAQRYVNTLLKLIPLVLGLQEQLRQAVQNGDMETSHGICRIAVALGENHSRALLDQVEHWQSFLALVNMIMFCTGIPGHYPVNETTSSLTLTFWYTLQDDILSFEAEKQAVYQQVYRPVYFQLVDVLLHKAQFPSDEEYGFWSSDEKEQFRIYRVDISDTLMYVYEMLGAELLSNLYDKLGRLLTSSEEPYSWQHTEALLYGFQSIAETIDVNYSDVVPGLIGLIPRISISNVQLADTVMFTIGALSEWLADHPVMINSVLPLVLHALGNPELSVSSVSTLKKICRECKYDLPPYAANIVAVSQDVLMKQIHKTSQCMWLMQALGFLLSALQVEEILKNLHSLISPYIQQLEKLAEEIPNPSNKLAIVHILGLLSNLFTTLDISHHEDDHEGPELRKLPVPQGPNPVVVVLQQVFQLIQKVLSKWLNDAQVVEAVCAIFEKSVKTLLDDFAPMVPQLCEMLGRMYSTIPQASALDLTRQLVHIFAHEPAHFPPIEALFLLVTSVTLTLFQQGPRDHPDIVDSFMQLLAQALKRKPDLFLCERLDVKAVFQCAVLALKFPEAPTVKASCGFFTELLPRCGEVESVGKVVQEDGRMLLIAVLEAIGGQASRSLMDCFADILFALNKHCFSLLSMWIKEALQPPGFPSARLSPEQKDTFSQQILRERVNKRRVKEMVKEFTLLCRGLHGTDYTADY	soluble
MERTFSEALKNRRTYYSITDQSPIPDQEIECIINLAVRHVPSAFNSQSTRVVLLLGKSHKKLWNIVKDALRKIVPGEAFAKTEEKIDNSFACGYGTVLFFEDQKVVKGLQEAFPSYQENFPGWSLQTSAMHQLAVWVMLEDVGFGASLQHYNPLIDDEVRRAWNLPAHWHLIAEMPFGVPVNKPGEKEFQPLEERIKVFK	not soluble
MESGPAVCCQDPRAELVDRVAAINVAHLEEADEGPEPARNGVDPPPRARAASVIPGSASRPTPVRPSLSARKFSLQERPAGSCLGAQVGPYSTGPASHISPRSWRRPTIESHRVAISDTEDCVQLNQYKLQSEIGKGAYGVVRLAYNESEDRHYAMKVLSKKKLLKQYGFPRRPPPRGSQATQGGPAKQLLPLERVYQEIAILKKLDHVNVVKLIEVLDDPAEDNLYLVFDLLRKGPVMEVPCDKPFPEEQARLYLRDIILGLEYLHCQKIVHRDIKPSNLLLGDDGHVKIADFGVSNQFEGNDAQLSSTAGTPAFMAPEAISDSGQSFSGKALDVWATGVTLYCFVYGKCPFIDDYILTLHRKIKNEAVVFPEEPEVSEDLKDLILRMLDKNPETRIGVSDIKLHPWVTKHGEEPLPSEEEHCSVVEVTEEEVKNSVRLIPSWTTVILVKSMLRKRSFGNPFEPQARREERSMSAPGSLLMKEGCGEGCKSPELPGVQEDEAAS	soluble
MESGREVWPRDPKKAKQAIKQAEFKCEIDDTHETFVSEASRKNYMEAHHLIPLRMQHDFENSLDVVGNIVSICPNCHRLIHYGRDKDKKKVLELLFELEHHHHHH	soluble
MESGSWRPPFSTGKIVGNYGLLKLYLEVAREKGRRDLVDKALISEDDVDMLRRLSASPGATAEDFVNALEERFVERVDPEVASEALARAGINVDGDTARRMIARILAGWLVEMGEEMKLYRLRRSWED	soluble
MESKLNLDFNLVEKARAKAKAIAIDTQEFIEKHTTVTVERAVCRLLGIDGVDTDEVPLPNIVVDHIKENNGLNLGAAMYIANAVLNTGKTPQEIAQAISAGELDLTKLPMKDLFEVKTKALSMAKETVEKIKNNRSIRESRFEEYGDKSGPLLYVIVATGNIYEDITQAVAAAKQGADVIAVIRTTGQSLLDYVPYGATTEGFGGTYATQENFRLMREALDKVGAEVGKYIRLCNYCSGLCMPEIAAMGAIERLDVMLNDALYGILFRDINMQRTMIDQNFSRIINGFAGVIINTGEDNYLTTADAFEEAHTVLASQFINEQFALLAGLPEEQMGLGHAFEMDPELKNGFLYELSQAQMAREIFPKAPLKYMPPTKFMTGNIFKGHIQDALFNMVTIMTNQRIHLLGMLTEALHTPFMSDRALSIENAQYIFNNMESISEEIQFKEDGLIQKRAGFVLEKANELLEEIEQLGLFDTLEKGIFGGVKRPKDGGKGLNGVVSKDENYYNPFVELMLNK	soluble
MESLGSIALFVLVTETRSFTLAGKRLGISSSGVGKSVGRLEESLGVRLFHRSTRSIALTLEGSIFLDRCRRILSELDAAQLELSNARDLPKGRLRISVPLVFGLVMPVVIQFMRTYPEIELDIDFSDRMVDIIDEGFDVVLRTGEPSDSRLMSKRMGSFQLCIVGSPDYFARHGLPEQPADLIHHACLQHKFPSTGKFEHWPLRREPGSEDFELPQTMVCNTTEVLVEVARAGLGITCLPDFMLASAIRKGELIPILSDYTLHTGSFRLFWASSKHLSVRLRVFIDFMHANLFAPARVGQEGRS	not soluble
MESLQSIKEIRKYIENNELVLMYFRSDNSGICYALDPLIEAISKKYSKISSVKVNTGNLPSVPADFKIFTVPEVIIFMNGSIVIEHFKYINFREIEEVLLRYYKCI	not soluble
MESRESSKDRLLILPSMGESYTEYVDSYLNLELLERGERETPIFLESLTRQLTQKIYELIKTKSLTADTLQQISDKYDGVVAENKLLFLQRQYYVDDEGNVRDGRNNDKIYCEPKHVYDMVMATHLMNKHLRGKTLHSFLFSHFANISHAIIDWVQQFCSKCNKKGKIKPLKEYKR	soluble
METALYLLPVTLGDTPLEQVLPSYNTEIIRGIRHFIVEDVRSARRFLKKVDREIDIDSLTFYPLNKHTSPEDISGYLKPLAGGASMGVISEAGCPAVADPGADVVAIAQRQKLKVIPLVGPSSIILSVMASGFNGQSFAFHGYLPIEPGERAKKLKTLEQRVYAESQTQLFIETPYRNHKMIEDILQNCRPQTKLCIAANITCEGEFIQTRTVKDWKGHIPELSKIPCIFLLYKLEHHHHHH	soluble
METASKRPKSGAAKKPAAAKARGDGPSYLDGQLLIAMPVMEDERFARSVIYICAHSSEGAMGIIVNRPAGSIDFPELLVQLDIVEKPEQIKLPDHAESMKVLRGGPVETGRGFVLHSSDFFIKDATLPIDDGICLTATVDILKAIAGGTGPKHAILALGYAGWAPGQLENEIQENGWLHCDADADLIFGDDIEEKYDRALHKLGIEPGMLSAEAGHALEHHHHHH	soluble
METEAIDGYITCDNELSPEREHSNMAIDLTSSTPNGQHASPSHMTSTNSVKLEMQSDEECDRKPLSREDEIRGHDEGSSLEEPLIESSEVADNRKVQELQGEGGIRLPNGERPFHCNQCGASFTQKGNLLRHIKLHSGEKPFKCPFCSYACRRRDALTGHLRTHSVGKPHKCNYCGRSYKQRSSLEEHKERCHNYLQNVSMEAAGQVMSHHVPPMEDCKEQEPIMDNNISLVPFERPAVIEKLTGNMGKRKSSTPQKFVGEKLMRFSYPDIHFDMNLTYEKEAELMQSHMMDQAINNAITYLGAEALHPLMQHPPSTIAEVAPVISSAYSQVYHPNRIERPISRETADSHENNMDGPISLIRPKSRPQEREASPSNSCLDSTDSESSHDDHQSYQGHPALNPKRKQSPAYMKEDVKALDTTKAPKGSLKDIYKVFNGEGEQIRAFKCEHCRVLFLDHVMYTIHMGCHGYRDPLECNICGYRSQDRYEFSSHIVRGEHTFH	soluble
METEEWFFKGISRKDAERQLLAPGNMLGSFMIRDSETTKGSYSLSVRDYDPRQGDTVKHYKIRTLDNGGFYISPRSTFSTLQELVDHYKKGNDGLCQKLSVPCMSSK	soluble
METFQKIKELVVVPERQSVILSVKQDLVNPLQDIAQQMAQYVTREYPLTLIDGVKLTPALEEQAFATYQTVQNLLTLKASVEDIAEALDVLEGGLTMQKVSNAEARAKAYITALNGISLWALLQAVKNLVRGEAKGMSTTFVPSCADLAQYCRDLENRLSGTAEKVFIAVENSRNLALGGKRISFMRIGKPCEELHGNLSSKAA	not soluble
METKCELNNTKKVANAFGLNEEDTNLLINAVDLDIKNNMQEISSELQQSEQSKQKQLGTTLQNLAKQNRIIK	not soluble
METLLTQILDRLDQLHSSVGALTSDVNEMKNQLNKIEARAGSIEERVNSIEARVDSIESRVNNIEANMATKDELAELRSKVDDIEAKMATKDELAELRSTVNGLQSNVNEIQAKMATKEELAELRSKVNELQFKVNELQSNVNEIQAKMATKDDLVPIRQAVMEIDQIVKRIEVNQERHEHILAILSKRSIEHEASIASLRQAQ	not soluble
